Test results published in patent publication US20150197559A1.

Assays:
[1] = molecular target: BoNT/B2 (Clostridium botulinum); assay: KinExA flow fluorimetry, IgG in solution
[2] = molecular target: BoNT/B3 (Clostridium botulinum); assay: KinExA flow fluorimetry, IgG in solution
[3] = molecular target: BoNT/B4 (Clostridium botulinum); assay: KinExA flow fluorimetry, IgG in solution
[4] = molecular target: BoNT/B2 (Clostridium botulinum); assay: flow cytometry, yeast-displayed Fab, soluble toxin
[5] = molecular target: BoNT/B2 (Clostridium botulinum); assay: flow cytometry, yeast-displayed Fab against yeast-displayed scFv
[6] = molecular target: BoNT/B2 (Clostridium botulinum); assay: flow cytometry, yeast-displayed scFv, soluble toxin

Binder	Kd [1] [pM]	Kd [2] [pM]	Kd [3] [pM]	Kd [6] [pM]	other results
2B25.1 IgG (antibody, V domains shown) VH: QVQLQESGPGLVKPSQTLSLSCSVSGASITSGTFYWSWIRQHPGKDLEWIGYIYYSGTTYYNPSLKSRVTLSVDTSKNQFSLKVTSLTAADTAVYHCARGVPIYDSSGTYRGTYFDYWGQGTLVTVSS VL: ESVLTQPPSVSAAPGQKVTISCSGSSSNIGNNYVSWYQQLPGTAPKLLIYDNNRRPSGIPDRFSGSKSGTSATLGITGLQTGDEADYYCGTWDSSLSEVVFGGGTKVTVLG	53.2	17.7	30		
1B18 IgG (antibody, V domains shown) VH: EVQLVQSGGGLVQPGGSRRLSCAASGFYFNAYWMTWVRQAPGKGLEWVANINLDGTEIYYLDSVKGRFTVSRDNVKNSVFLQMSSLRVEDTAVYFCARLEWGGRNGWVSPWGQGTLVTVSS VL: DVVMTQSPSSVSASVGDRVTITCRASQSISSYLNWYQQRPGKAPKLLIFAASSLQSAVPSRFSGSGSGTDFTLTISSLQPEDFATYYCQQSYSTPPTFGQGTKVEIKR	817	972	21		
B12.1 IgG (antibody, V domains shown) VH: QVNLRESGGGVVQPGRSLRLSCAASGFTFSSYALHWVRQTPGKGLEWVALISYDGSNKYYADSVKGRFTISRDNSKNMLYLQMNSLRAEDTAVYYCAKDRSHYGDYVGYLDYWGQGTLVTVSS VL: AYVLTQPPSVSVAPGKTAAITCEGNNVGNKNVHWYQQRPGQAPVLVVHDDSDRPSGIPERFSGSNSGNTATLTINRVEAGDEADYYCQVWDSSSAQWVFGGGTKLTVLG	16.2	46.2	625		
1B10.1 IgG (antibody, V domains shown) VH: QVQLVESGGGVVQPGRSLRLSCAASGFTFSHYGMHWVRQSPGKGLEWVAVIWYDGRNPYYAASVKGRFTISRDNDKNTLYLQMNSLRAEDTAVYYCVKDLTRFHDTTFGVFEMWGPGTTVTVSS VL: EIVLTQSPSFVSASVGDRVTITCRASQGISSWLAWYQQKPGKAPKLLIYAASSLQSGVPSRFSGSGSGTEFTLTISSLQPDDFATYYCQQYSSLYTFGQGTKVDIKR	0.31	1200	0.47		
B11E8 Fab (Fab, V domains shown) VH: EVQLVQSGGGVVQPGRSLRLSCAASGFIFRTYGMHWVRQAPGKGLEWVAFVSSDGNNKFYSDSVKGRFTISRDNAKNTLYLQMNSLETEDTAMYYCAKDRYPIDCSGGSCFSYGMDVWGQGTTVTVSS VL: EIVLTQSPATLSVSPGERATLSCRASQSVSKFLAWYQQKRGQAPRLLIYGASTRATGIPARFSGSGSGTEFALTISSLQSEDFADYYCQQYDNWPITFGQGTRLEIKR					Kd [4]: 166 pM
B11E8 IgG (antibody, V domains shown) VH: EVQLVQSGGGVVQPGRSLRLSCAASGFIFRTYGMHWVRQAPGKGLEWVAFVSSDGNNKFYSDSVKGRFTISRDNAKNTLYLQMNSLETEDTAMYYCAKDRYPIDCSGGSCFSYGMDVWGQGTTVTVSS VL: EIVLTQSPATLSVSPGERATLSCRASQSVSKFLAWYQQKRGQAPRLLIYGASTRATGIPARFSGSGSGTEFALTISSLQSEDFADYYCQQYDNWPITFGQGTRLEIKR	18.1	15.6			
B11 Fab (Fab, V domains shown) VH: QVQLLQSAGGVVQPGRSLRLSCAASGFIFRTYGMHWVRQAPGKGLEWVAFVSSDGNNKFYSDSVKGRFTIPRDNAKNTLYLQMNSLETEDTAVYYCAKDRYPIDCSGGSCFSYGMDVWGQGTTVTVSS VL: DIVMTQSPSTLSASVGDRVTVTCRASQSINSWLAWYQQKPGKAPKLLIYEASSLESGVPSRFSGSGSGTEFTLTISSLQPDDFATYYCQQYDSYWLTFGGGTKVEIKR					fold higher affinity than the scFv [5]: 1.46 fold
B11 scFv (scFv) scFv: QVQLLQSAGGVVQPGRSLRLSCAASGFIFRTYGMHWVRQAPGKGLEWVAFVSSDGNNKFYSDSVKGRFTIPRDNAKNTLYLQMNSLETEDTAVYYCAKDRYPIDCSGGSCFSYGMDVWGQGTTVTVSSGGGGSGGGGSGGGGSDIVMTQSPSTLSASVGDRVTVTCRASQSINSWLAWYQQKPGKAPKLLIYEASSLESGVPSRFSGSGSGTEFTLTISSLQPDDFATYYCQQYDSYWLTFGGGTKVEIK				2110	
B6 scFv (scFv) scFv: QVQLVQSGAEVKKPGESLVISCKASGDKDTFTSFWIAWVRQMPGKGLEWMGIIYAGDSDTRYSPSFQGHVNISVDRSTNTAYLQWSSLKASDTAMYYCARHDSRYKYFYFGMDVWGQGTTVTVSSGGGGSGGGGSGGGGSDVVMTQSPSSLSASVGDRITITCQAGQDISNFLNWYQQKPGKAPKLLIRDASNLETGVPSRFSGGGSGTHFTFTISSLHPEDIATYFCQQYDNLPYTFGQGTKLEIK				1770	
1B22 IgG (antibody, V domains shown) VH: QVQLQESGSRLVKPSQTLSLTCGVSGGSISSSSYSWSWIRQTPGKGLEWIGYIYHSGSTYYNPSLKSRVTMSVDKSRNQFSLNMSSVTAADTAVYYCARTAFYYENTGPIRCYLDFWGQGTLVTVSS VL: DIQMTQSPSTLSASIGDRVTISCRASQSIQSWLAWYQQRPGEAPKLLIYSASTLQTGVPSRFSGSGSGTDFTLTISSLQPEDFATYYCQQYNSYPLTFGQGTKLEIK	319	221	129		
2B23 IgG (antibody, V domains shown) VH: EVQLLESGGGLVQPGGSLRLSCAASGFTFSNYPMSWVRQAPGKGLAWVSSLTASGDNTFYADSVKGRFTISRDNSNNTLYLQMHSLRAEDTAVYYCAKALVGRYDISTGYYRPVMDSWGQGTLVTVSS VL: DIQMTQSPPSLSASVGDRVTITCRTSQGFTSALAWYQQKPGEPPKLLIYDASKLESGVPSRFSGSGSGTNFALTISSLQPEDFATYFCQQSNSYPLTFGGGTKVEIKR	45.3	48	55.2		
2B30 scFv (scFv) scFv: EVQLVESGGGVVQPGRSLRLSCAASGFTFRRNAIHWVRQAPGKGLEWVAVISYDGVNKYYAASVKGRFAISRDNAKNTLFLQMNSLRPEDSAIYYCARDVSEYGDYVGHFDYWGQGTLVTVSSGGGGSGGGGSGGGGSSYELMQLPSASGTPGQRVSISCSGSSSNIGSNPVNWYQQLPGTAPKLLIYSNNHRPSGVPDRFSGSKSGTSASLAISGLQSEDEADYYCAAWDGSLNGHVVFGGGTKLTVL				190	
B11E8 scFv (scFv) scFv: EVQLVQSGGGVVQPGRSLRLSCAASGFIFRTYGMHWVRQAPGKGLEWVAFVSSDGNNKFYSDSVKGRFTISRDNAKNTLYLQMNSLETEDTAMYYCAKDRYPIDCSGGSCFSYGMDVWGQGTTVTVSSGGGGSGGGGSGGGGSEIVLTQSPATLSVSPGERATLSCRASQSVSKFLAWYQQKRGQAPRLLIYGASTRATGIPARFSGSGSGTEFALTISSLQSEDFADYYCQQYDNWPITFGQGTRLEIK				189	
